We go through 4 molecules from publication PMC2575085 (Nature structural & molecular biology, 2008).

Common to all, as to experiment: EPR
For data set [1], the target named is Sso1pHT spin-labeled cysteine mutant at position 284 (yeast) (UniProt P32867).
Data set [2] has the same target. This is another data set of the same source.
Data set [3] concerns the target Sso1pHT spin-labeled cysteine mutant at position 269 (yeast) (UniProt P32867).
The target is the same in data set [4]. The source holds these as a separate data set.
Data set [5] addresses Sso1pHT spin-labeled cysteine mutant at position 272 (yeast) (UniProt P32867).
Data set [6] has the same target. This is another data set of the same source.
The data set “EPR” deals with the molecule itself.

Where “and” joins values, the source holds several entries; their conditions need not be identical. Equal values may be shown once. Read-outs that look alike come from different tables or passages of the source.

With “Sso1pHT spin-labeled cysteine mutant at position 284 (from UniProt P32867 185-290) (domain or fragment)”, in data set [1], the stoichiometry N is over 3. For the same molecule, in data set [2], the ln K (equilibrium constant of nM to Mn, concentration as protein:lipid ratio) is 18.4 and the stoichiometry N came out at 4.

For the molecule “Sso1pHT spin-labeled cysteine mutant at position 269 (from UniProt P32867 185-290) (domain or fragment)”, in data set [3], the stoichiometry N was over 3. Also, in data set [4], the ln K (equilibrium constant of nM to Mn, concentration as protein:lipid ratio) amounted to 18.4 and the stoichiometry N was found to be 4.

In data set [5], “Sso1pHT spin-labeled cysteine mutant at position 272 (from UniProt P32867 185-290) (domain or fragment)” registered a stoichiometry N of over 3. Besides, in data set [6], the ln K (equilibrium constant of nM to Mn, concentration as protein:lipid ratio) is 18.4 and the stoichiometry N was determined as 4.

B1: Sso1pHT I273C, spin-labeled (domain or fragment, yeast, UniProt P32867 185-290, looked up)
chain: EAKTALAEVQARHQELLKLEKSMAELTQLFNDMEELVIEQQENVDVIDKNVEDAQLDVEQGVGHTDKAVKSARKARKNKIRAWLIVFACIVVVVVVVVVPAVVKTR
modifications: MTSSL nitroxide spin label on the cysteine at 273
As to B1, in “EPR”, the “ln K (equilibrium constant of nM to Mn, concentration as protein:lipid ratio)” value came to 18.4; the “stoichiometry N” value was 4 and ≥ 3.
